Three molecules from patent US20040072993A1 (UNIVERSITY OF CONNECTICUT HEALTH CENTER, published 2004) can be followed below.

In this experiment the target is mouse alpha (2) macroglobulin receptor (mouse, UniProt Q91ZX7 20-4545). Briefly: cell-based or functional assay.
mouse alpha (2) macroglobulin receptor, sequence (Q91ZX7 other isoform, or with tags, fused parts or gaps limits assumed): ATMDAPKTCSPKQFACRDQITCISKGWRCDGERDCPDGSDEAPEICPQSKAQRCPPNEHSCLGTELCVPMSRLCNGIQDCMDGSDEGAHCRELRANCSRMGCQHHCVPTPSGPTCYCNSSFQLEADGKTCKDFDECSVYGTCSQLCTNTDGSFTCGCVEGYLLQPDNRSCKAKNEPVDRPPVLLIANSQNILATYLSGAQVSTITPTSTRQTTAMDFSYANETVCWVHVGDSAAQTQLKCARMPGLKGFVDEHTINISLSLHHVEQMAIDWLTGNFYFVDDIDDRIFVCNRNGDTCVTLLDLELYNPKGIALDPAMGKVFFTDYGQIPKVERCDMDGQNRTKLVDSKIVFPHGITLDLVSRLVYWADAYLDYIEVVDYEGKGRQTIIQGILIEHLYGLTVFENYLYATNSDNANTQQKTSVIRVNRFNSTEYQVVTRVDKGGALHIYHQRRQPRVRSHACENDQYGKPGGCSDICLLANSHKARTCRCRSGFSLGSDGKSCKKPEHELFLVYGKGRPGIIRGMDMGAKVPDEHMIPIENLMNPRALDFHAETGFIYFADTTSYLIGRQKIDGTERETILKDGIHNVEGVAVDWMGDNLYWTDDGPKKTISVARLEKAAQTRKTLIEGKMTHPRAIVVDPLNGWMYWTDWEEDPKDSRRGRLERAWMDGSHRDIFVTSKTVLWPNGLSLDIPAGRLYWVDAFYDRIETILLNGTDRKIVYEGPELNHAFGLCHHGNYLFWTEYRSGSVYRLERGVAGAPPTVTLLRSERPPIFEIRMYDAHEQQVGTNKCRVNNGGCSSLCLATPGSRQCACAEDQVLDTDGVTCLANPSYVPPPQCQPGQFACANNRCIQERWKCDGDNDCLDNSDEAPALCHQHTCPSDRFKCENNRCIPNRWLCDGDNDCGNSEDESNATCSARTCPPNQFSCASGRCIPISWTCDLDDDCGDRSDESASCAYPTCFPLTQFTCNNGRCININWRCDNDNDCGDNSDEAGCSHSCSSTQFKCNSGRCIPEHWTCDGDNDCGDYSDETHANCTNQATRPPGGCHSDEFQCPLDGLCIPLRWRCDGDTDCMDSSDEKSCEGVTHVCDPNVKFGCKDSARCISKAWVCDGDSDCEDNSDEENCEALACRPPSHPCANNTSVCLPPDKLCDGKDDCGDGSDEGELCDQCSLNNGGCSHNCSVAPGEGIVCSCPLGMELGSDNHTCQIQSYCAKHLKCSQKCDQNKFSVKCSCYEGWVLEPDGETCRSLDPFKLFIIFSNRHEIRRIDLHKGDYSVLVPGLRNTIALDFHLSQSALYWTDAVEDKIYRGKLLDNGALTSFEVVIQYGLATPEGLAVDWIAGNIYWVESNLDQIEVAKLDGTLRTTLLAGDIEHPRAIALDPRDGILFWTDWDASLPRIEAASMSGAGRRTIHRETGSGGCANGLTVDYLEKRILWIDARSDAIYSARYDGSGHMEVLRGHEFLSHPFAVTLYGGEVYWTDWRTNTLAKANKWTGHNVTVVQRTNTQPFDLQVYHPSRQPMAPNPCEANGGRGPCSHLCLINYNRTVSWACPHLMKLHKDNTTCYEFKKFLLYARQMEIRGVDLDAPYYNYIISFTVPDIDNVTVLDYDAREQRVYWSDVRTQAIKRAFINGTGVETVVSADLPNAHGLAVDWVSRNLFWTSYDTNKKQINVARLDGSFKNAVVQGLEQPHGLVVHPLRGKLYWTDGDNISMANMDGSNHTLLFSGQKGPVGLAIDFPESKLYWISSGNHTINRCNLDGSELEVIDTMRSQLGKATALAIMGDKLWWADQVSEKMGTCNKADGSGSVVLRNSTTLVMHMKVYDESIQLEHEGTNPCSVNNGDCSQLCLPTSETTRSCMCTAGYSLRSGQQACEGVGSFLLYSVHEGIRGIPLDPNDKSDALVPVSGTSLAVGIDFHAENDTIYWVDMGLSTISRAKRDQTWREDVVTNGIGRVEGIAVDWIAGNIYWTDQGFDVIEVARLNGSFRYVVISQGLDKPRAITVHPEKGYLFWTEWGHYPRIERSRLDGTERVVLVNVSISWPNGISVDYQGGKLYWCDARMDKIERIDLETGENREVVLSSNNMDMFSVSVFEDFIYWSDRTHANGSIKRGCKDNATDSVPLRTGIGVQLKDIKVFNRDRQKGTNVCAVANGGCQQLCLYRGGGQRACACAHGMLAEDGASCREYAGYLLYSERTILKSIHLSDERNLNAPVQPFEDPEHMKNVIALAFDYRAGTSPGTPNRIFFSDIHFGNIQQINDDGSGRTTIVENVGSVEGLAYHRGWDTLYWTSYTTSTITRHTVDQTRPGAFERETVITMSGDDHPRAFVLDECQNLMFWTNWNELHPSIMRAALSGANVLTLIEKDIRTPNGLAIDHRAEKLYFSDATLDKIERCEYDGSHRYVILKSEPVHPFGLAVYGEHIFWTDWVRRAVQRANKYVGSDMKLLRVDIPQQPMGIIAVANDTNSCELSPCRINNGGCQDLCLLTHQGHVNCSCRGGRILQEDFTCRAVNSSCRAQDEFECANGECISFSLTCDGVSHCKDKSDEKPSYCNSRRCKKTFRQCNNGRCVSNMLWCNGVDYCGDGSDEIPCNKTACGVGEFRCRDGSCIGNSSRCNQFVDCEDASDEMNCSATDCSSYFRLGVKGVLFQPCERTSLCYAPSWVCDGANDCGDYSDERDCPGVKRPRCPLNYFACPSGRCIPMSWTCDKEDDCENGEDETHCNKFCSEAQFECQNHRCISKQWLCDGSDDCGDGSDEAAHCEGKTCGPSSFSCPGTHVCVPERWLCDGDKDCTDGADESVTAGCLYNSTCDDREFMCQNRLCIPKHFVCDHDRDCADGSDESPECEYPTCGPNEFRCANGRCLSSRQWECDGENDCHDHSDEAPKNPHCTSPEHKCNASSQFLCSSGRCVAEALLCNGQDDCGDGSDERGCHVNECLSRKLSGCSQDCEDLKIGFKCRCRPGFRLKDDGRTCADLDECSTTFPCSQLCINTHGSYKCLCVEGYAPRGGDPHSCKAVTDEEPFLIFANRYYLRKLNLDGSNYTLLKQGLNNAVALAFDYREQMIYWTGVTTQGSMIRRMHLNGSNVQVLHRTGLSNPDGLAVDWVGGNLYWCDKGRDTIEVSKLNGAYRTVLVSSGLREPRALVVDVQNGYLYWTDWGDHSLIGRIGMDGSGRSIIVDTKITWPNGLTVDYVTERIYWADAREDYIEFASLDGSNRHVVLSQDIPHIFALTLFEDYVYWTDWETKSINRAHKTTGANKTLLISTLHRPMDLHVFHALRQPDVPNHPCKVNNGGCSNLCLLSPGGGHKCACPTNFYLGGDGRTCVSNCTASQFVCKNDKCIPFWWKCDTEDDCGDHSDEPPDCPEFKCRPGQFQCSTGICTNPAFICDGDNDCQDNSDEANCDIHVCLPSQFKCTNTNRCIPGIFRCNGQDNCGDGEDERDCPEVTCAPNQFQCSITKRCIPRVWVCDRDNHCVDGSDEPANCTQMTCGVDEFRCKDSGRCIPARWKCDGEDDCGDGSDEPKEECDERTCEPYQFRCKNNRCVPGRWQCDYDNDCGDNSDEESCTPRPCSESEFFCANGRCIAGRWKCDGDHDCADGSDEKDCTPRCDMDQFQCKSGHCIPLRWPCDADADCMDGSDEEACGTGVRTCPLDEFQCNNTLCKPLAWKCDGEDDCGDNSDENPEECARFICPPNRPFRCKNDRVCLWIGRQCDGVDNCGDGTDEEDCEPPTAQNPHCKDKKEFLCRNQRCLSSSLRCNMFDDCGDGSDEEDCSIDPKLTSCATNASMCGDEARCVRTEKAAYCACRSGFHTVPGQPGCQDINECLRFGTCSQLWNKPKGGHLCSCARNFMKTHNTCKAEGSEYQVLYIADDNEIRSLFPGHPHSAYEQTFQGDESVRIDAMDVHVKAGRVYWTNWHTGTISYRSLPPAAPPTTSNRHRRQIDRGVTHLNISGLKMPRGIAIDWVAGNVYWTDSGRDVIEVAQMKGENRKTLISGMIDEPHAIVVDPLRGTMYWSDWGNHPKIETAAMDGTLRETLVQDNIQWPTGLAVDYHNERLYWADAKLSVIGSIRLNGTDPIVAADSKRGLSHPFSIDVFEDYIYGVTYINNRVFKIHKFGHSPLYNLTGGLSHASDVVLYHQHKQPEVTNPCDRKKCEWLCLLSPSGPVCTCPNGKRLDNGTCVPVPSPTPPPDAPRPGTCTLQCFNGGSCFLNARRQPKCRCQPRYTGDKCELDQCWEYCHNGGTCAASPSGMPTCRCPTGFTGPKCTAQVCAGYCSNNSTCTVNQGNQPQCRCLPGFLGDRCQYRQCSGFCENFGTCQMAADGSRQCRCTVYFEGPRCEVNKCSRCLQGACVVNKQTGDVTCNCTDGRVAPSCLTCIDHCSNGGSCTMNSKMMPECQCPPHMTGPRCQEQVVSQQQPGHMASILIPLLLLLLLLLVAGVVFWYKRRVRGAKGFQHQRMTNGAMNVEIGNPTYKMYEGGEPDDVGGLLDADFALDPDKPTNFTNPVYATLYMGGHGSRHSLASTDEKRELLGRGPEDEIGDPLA

Molecule heat shock protein hsp70 (ligand) had a molar excess of free HSP required to inhibit by 50% the re-presentation of gp96-chaperoned peptides at a gp96 concentration of 40 µg/ml (RAW264.7 cells) (fold molar excess) of 13. heat shock protein hsp90 (ligand) gave a molar excess of free HSP required to inhibit by 50% the re-presentation of gp96-chaperoned peptides at a gp96 concentration of 40 µg/ml (RAW264.7 cells) (fold molar excess) of 2.

B1: heat shock protein gp96 (ligand, UniProt P08113 22-802, looked up)
chain: DDEVDVDGTVEEDLGKSREGSRTDDEVVQREEEAIQLDGLNASQIRELREKSEKFAFQAEVNRMMKLIINSLYKNKEIFLRELISNASDALDKIRLISLTDENALAGNEELTVKIKCDKEKNLLHVTDTGVGMTREELVKNLGTIAKSGTSEFLNKMTEAQEDGQSTSELIGQFGVGFYSAFLVADKVIVTSKHNNDTQHIWESDSNEFSVIADPRGNTLGRGTTITLVLKEEASDYLELDTIKNLVRKYSQFINFPIYVWSSKTETVEEPLEEDEAAKEEKEESDDEAAVEEEEEEKKPKTKKVEKTVWDWELMNDIKPIWQRPSKEVEEDEYKAFYKSFSKESDDPMAYIHFTAEGEVTFKSILFVPTSAPRGLFDEYGSKKSDYIKLYVRRVFITDDFHDMMPKYLNFVKGVVDSDDLPLNVSRETLQQHKLLKVIRKKLVRKTLDMIKKIADEKYNDTFWKEFGTNIKLGVIEDHSNRTRLAKLLRFQSSHHSTDITSLDQYVERMKEKQDKIYFMAGSSRKEAESSPFVERLLKKGYEVIYLTEPVDEYCIQALPEFDGKRFQNVAKEGVKFDESEKTKESREATEKEFEPLLNWMKDKALKDKIEKAVVSQRLTESPCALVASQYGWSGNMERIMKAQAYQTGKDISTNYYASQKKTFEINPRHPLIRDMLRRIKEDEDDKTVMDLAVVLFETATLRSGYLLPDTKAYGDRIERMLRLSLNIDPEAQVEEEPEEEPEDTSEDAEDSEQDEGEEMDAGTEEEEEETEKESTEKDEL
With B1, the “molar excess of free HSP required to inhibit by 50% the re-presentation of gp96-chaperoned peptides at a gp96 concentration of 40 µg/ml (RAW264.7 cells)” value is approximately 6 fold molar excess.
